Measurements published in article PMC9507964, “Structure of CRL7^FBXW8 reveals coupling with CUL1–RBX1/ROC1 for multi-cullin-RING E3-catalyzed ubiquitin ligation” (Nature Structural & Molecular Biology, 2022).

T1: FBXW8 (human, UniProt Q8N3Y1 1-598)
T1 construct: FBXW8, human, full length; source: HEK293S, co-expressed (BacMam), purified within CRL7^FBXW8; not shown: GFP, N-terminal, cleaved
T1 sequence (looked up): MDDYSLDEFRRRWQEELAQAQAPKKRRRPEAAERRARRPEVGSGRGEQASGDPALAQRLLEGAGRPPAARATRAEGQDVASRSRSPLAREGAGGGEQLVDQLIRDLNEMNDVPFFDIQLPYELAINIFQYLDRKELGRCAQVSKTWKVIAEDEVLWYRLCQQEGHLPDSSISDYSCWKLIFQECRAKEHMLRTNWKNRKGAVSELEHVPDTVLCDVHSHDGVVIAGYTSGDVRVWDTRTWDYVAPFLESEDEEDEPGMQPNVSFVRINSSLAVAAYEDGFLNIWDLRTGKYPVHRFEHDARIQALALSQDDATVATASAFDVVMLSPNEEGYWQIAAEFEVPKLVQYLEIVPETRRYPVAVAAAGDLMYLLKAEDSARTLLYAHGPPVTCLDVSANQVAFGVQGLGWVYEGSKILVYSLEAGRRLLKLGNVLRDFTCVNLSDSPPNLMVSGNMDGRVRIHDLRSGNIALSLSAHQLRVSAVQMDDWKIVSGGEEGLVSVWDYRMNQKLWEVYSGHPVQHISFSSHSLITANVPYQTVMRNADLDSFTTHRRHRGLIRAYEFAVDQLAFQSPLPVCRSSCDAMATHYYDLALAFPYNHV


What was measured:
[1] = molecular target: T2, CUL1–RBX1 (full-length CUL1) (human, UniProt Q13616 1-776; P62877 5-108); test: SEC; comigration; proteins mixed at equimolar 1.5 μM for at least 10 min on ice; Superose 6 5/150GL; 50 mM Tris pH 7.5, 150 mM NaCl, 1 mM DTT; fractions on Coomassie-stained SDS–PAGE; conditions: both partners purified
T2 construct: CUL1, human, full length; RBX1, human, residue 5 to C terminus; Unneddylated form used in the SEC experiments; also called full-length CUL1–RBX1; not shown: GST, N-terminal, cleaved

[2] = molecular target: T1, FBXW8; test: cryo-EM structure; purified CRL7^FBXW8 and CUL1 N-terminal region mixed 15 min before plunging, on ice; Glacios 200 kV; conditions: both partners purified

| Binder | binding result [1] | binding result [2] |
| --- | --- | --- |
| SKP1^ΔΔ–β-TRCP1 (monomeric form) complex (complex, human, β-TRCP1, human, monomeric form, from residue 175 to C terminus; also called SKP1-β-TRCP1; SKP-β-TRCP1; not shown: His-MBP, N-terminal, cleaved) chain 1: MLQRDFITALPARGLDHIAENILSYLDAKSLCAAELVCKEWYRVTSDGMLWKKLIERMVRTDSLWRGLAERRGWGQYLFKNKPPDGNAPPNSFYRALYPKIIQDIETIESNWRCGRHSLQRIHCRSETSKGVYCLQYDDQKIVSGLRDNTIKIWDKNTLECKRILTGHTGSVLCLQYDERVIITGSSDSTVRVWDVNTGEMLNTLIHHCEAVLHLRFNNGMMVTCSKDRSIAVWDMASPTDITLRRVLVGHRAAVNVVDFDDKYIVSASGDRTIKVWNTSTCEFVRTLNGHKRGIACLQYRDRLVVSGSSDNTIRLWDIECGACLRVLEGHEELVRCIRFDNKRIVSGAYDGKIKVWDLVAALDPRAPAGTLCLRTLVEHSGRVFRLQFDEFQIVSSSHDDTILIWDFLNDPAAQAEPPRSPSRTYTYISR chain 2: MPSIKLQSSDGEIFEVDVEIAKQSVTIKTMLEDLGMDPVPLPNVNAAILKKVIQWCTHHKDDPPDDIPVWDQEFLKVDQGTLFELILAANYLDIKGLLDVTCKTVANMIKGKTPEEIRKTFNIKNDFTEEEEAQVRKENQWCEEK | binds |  |
| CUL1 N-terminal region (residues 1–410) (domain or fragment, CUL1, human, residues 1 to 410 encompassing the CR1, CR2 and CR3 domains; Expressed as a GST-thrombin or GST-TEV fusion; also called CUL1^NTD; N-terminal region of CUL1 (CR1, CR2 and CR3 domains)) not shown |  | binds |
